Measurements as given in the supplement of paper PMC6757056.
± gives the standard deviation of the averaged measurements.

B1: library; a variant is named by its letters at N, in order (parent)
chain: GCUGUCACCGAGAAACUGUGAAGUAUAUCUUAAACCUGGGCACUUAAAAGAUAUAUGGAGUUAGUAGUGCAACCUGCUCGGUCUGAUGAGUCCNNNNNNGGACGAAACAGC

Assays:
[1] = variants of: B1; assay: normalized RNA/DNA level without ligand (relative to sTRSVctl = 100) (log10 (% of sTRSVctl)); HEK293T; ligand: cyclic di-GMP (c-di-GMP-II aptamer); higher = less ribozyme self-cleavage, higher mRNA level; details: reporter: mCherry (pCS4076), ligand present: no
Summary of the method: (§1)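 RNA level was computed as RNA reads over DNA reads divided by a spiked-in non-cleaving sequence or by the top sequences, then scaled and log-transformed. Scaling was ×100 with log10, the top group was 25 sequences, and the threshold was ≥100 DNA reads. The reads came from HEK293T cells transfected at 4 µg per 6-well well with ribozyme switch library plasmids (mCherry, or eGFP in some ligand experiments). Total RNA was extracted with EDTA 72 h after transfection, with any ligand added 1 h before it.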

[2] = variants of: B1; assay: normalized RNA/DNA level with ligand (relative to sTRSVctl = 100) (log10 (% of sTRSVctl)); HEK293T; ligand: cyclic di-GMP (c-di-GMP-II aptamer); ligand concentration (+) RNA-Seq: 1 mM; higher = less ribozyme self-cleavage, higher mRNA level; details: reporter: mCherry (pCS4076), ligand present: yes
Summary of the method: as §1

Row | Variant | normalized RNA/DNA level without ligand (log10) [1] | normalized RNA/DNA level with ligand (log10) [2]
1 | AUCUCU | 1.669 ± 0.0069 | 1.86 ± 0.042
2 | AUCUCG | 1.76 ± 0.023 | 1.87 ± 0.15
3 | AUCUCC | 1.806 ± 0.0081 | 1.9 ± 0.034
4 | AUCUCA | 1.666 ± 0.0097 | 1.78 ± 0.16
5 | UUCCAG | 1.76 ± 0.022 | 1.89 ± 0.093
6 | UUCCAA | 1.7 ± 0.037 | 1.84 ± 0.13
7 | UUCCAU | 1.73 ± 0.028 | 1.85 ± 0.15
8 | UUCCAC | 1.7863 ± 0.00044 | 1.88 ± 0.13
9 | CUGAGC | 1.76 ± 0.033 | 1.87 ± 0.12
10 | CUGAGA | 1.46 ± 0.079 | 1.69 ± 0.11
11 | AUGACG | 1.59 ± 0.089 | 1.76 ± 0.086
12 | AUGACA | 1.581 ± 0.013 | 1.72 ± 0.14
13 | CUCUCA | 1.57 ± 0.056 | 1.78 ± 0.098
14 | CUCUCC | 1.81 ± 0.029 | 1.91 ± 0.11
15 | CUCUCG | 1.89 ± 0.031 | 1.96 ± 0.1
16 | CUCGAC | 1.714 ± 0.0032 | 1.85 ± 0.069
17 | CUCGAU | 1.72 ± 0.023 | 1.86 ± 0.081
18 | CUCGAG | 1.71 ± 0.034 | 1.86 ± 0.11
19 | AUCCUA | 1.61 ± 0.041 | 1.78 ± 0.083
20 | AUCCUU | 1.74 ± 0.042 | 1.89 ± 0.081
21 | AUCCUC | 1.823 ± 0.0034 | 1.94 ± 0.079
22 | UUCCCA | 1.79 ± 0.07 | 1.92 ± 0.12
23 | UUCCCG | 1.85 ± 0.1 | 1.94 ± 0.13

Row | Variant | normalized RNA/DNA level without ligand (log10) [1] | normalized RNA/DNA level with ligand (log10) [2]
24 | UUCCCU | 1.766 ± 0.012 | 1.89 ± 0.048
25 | UUCCCC | 1.84 ± 0.053 | 1.94 ± 0.14
26 | AUCCGC | 1.76 ± 0.032 | 1.88 ± 0.13
27 | AUCCGU | 1.74 ± 0.041 | 1.89 ± 0.12
28 | AUCCGG | 1.85 ± 0.024 | 1.93 ± 0.023
29 | AUCCGA | 1.56 ± 0.017 | 1.73 ± 0.15
30 | GUGAGC | 1.51 ± 0.086 | 1.77 ± 0.041
31 | UUCUAG | 1.75 ± 0.047 | 1.84 ± 0.15
32 | UUCUAU | 1.721 ± 0.0074 | 1.83 ± 0.11
33 | UUCUAA | 1.66 ± 0.025 | 1.8 ± 0.11
34 | UUCUAC | 1.75 ± 0.025 | 1.9 ± 0.035
35 | UUCAGG | 1.82 ± 0.048 | 1.88 ± 0.12
36 | UUCAGC | 1.78 ± 0.082 | 1.9 ± 0.13
37 | UUCAGA | 1.7 ± 0.084 | 1.81 ± 0.069
38 | UUCAGU | 1.75 ± 0.023 | 1.89 ± 0.069
39 | GUCGAG | 1.617 ± 0.0063 | 1.76 ± 0.12
40 | GUCGAC | 1.5985 ± 0.0011 | 1.76 ± 0.16
41 | GUCGAA | 1.49 ± 0.068 | 1.65 ± 0.11
42 | GUCGAU | 1.59 ± 0.11 | 1.71 ± 0.096
43 | CUCUGU | 1.78 ± 0.062 | 1.91 ± 0.06
44 | CUCUGA | 1.663 ± 0.015 | 1.81 ± 0.09
45 | CUCUGG | 1.81 ± 0.066 | 1.86 ± 0.14
46 | CUCUGC | 1.7905 ± 0.00063 | 1.83 ± 0.13

Row | Variant | normalized RNA/DNA level without ligand (log10) [1] | normalized RNA/DNA level with ligand (log10) [2]
47 | GUCCUA | 1.709 ± 0.0036 | 1.88 ± 0.083
48 | GUCCUC | 1.75 ± 0.026 | 1.9 ± 0.1
49 | GUCCUU | 1.7 ± 0.019 | 1.87 ± 0.1
50 | AUGAAU | 1.53 ± 0.055 | 1.72 ± 0.024
51 | AUGAAG | 1.52 ± 0.13 | 1.67 ± 0.064
52 | CUCAUU | 1.79 ± 0.079 | 1.9 ± 0.12
53 | CUCAUG | 1.68 ± 0.031 | 1.82 ± 0.14
54 | AUCAUG | 1.62 ± 0.019 | 1.78 ± 0.11
55 | AUCAUA | 1.615 ± 0.0089 | 1.74 ± 0.075
56 | AUCAUU | 1.695 ± 0.0081 | 1.79 ± 0.12
57 | AUCAUC | 1.8459 ± 0.00049 | 1.935 ± 0.0035
58 | GUCGGC | 1.65 ± 0.067 | 1.83 ± 0.053
59 | GUCGGU | 1.67 ± 0.039 | 1.83 ± 0.062
60 | GUCGGG | 1.73 ± 0.025 | 1.84 ± 0.13
61 | CUCGCC | 1.784 ± 0.0038 | 1.86 ± 0.095
62 | CUCGCA | 1.66 ± 0.047 | 1.81 ± 0.14
63 | CUCGCG | 1.857 ± 0.014 | 1.91 ± 0.039
64 | CUCGGU | 1.79 ± 0.021 | 1.89 ± 0.16
65 | CUCGGC | 1.797 ± 0.0073 | 1.9 ± 0.088
66 | CUCGGG | 1.76 ± 0.031 | 1.88 ± 0.085
67 | UUGAAC | 1.691 ± 0.0046 | 1.82 ± 0.11
68 | UUGAAU | 1.661 ± 0.0028 | 1.83 ± 0.095
69 | CUCUUU | 1.6 ± 0.071 | 1.76 ± 0.079

Row | Variant | normalized RNA/DNA level without ligand (log10) [1] | normalized RNA/DNA level with ligand (log10) [2]
70 | CUCUUC | 1.73 ± 0.052 | 1.87 ± 0.082
71 | GUGAAC | 1.5 ± 0.08 | 1.69 ± 0.13
72 | AUGAGC | 1.62 ± 0.066 | 1.8 ± 0.082
73 | AUGAGG | 1.55 ± 0.044 | 1.73 ± 0.085
74 | UUCUUG | 1.73 ± 0.045 | 1.86 ± 0.11
75 | UUCUUC | 1.78 ± 0.05 | 1.89 ± 0.16
76 | UUCUUU | 1.74 ± 0.024 | 1.9 ± 0.081
77 | UUCUUA | 1.76 ± 0.095 | 1.87 ± 0.15
78 | GUCCCC | 1.76 ± 0.029 | 1.86 ± 0.061
79 | GUCCCU | 1.77 ± 0.024 | 1.92 ± 0.091
80 | GUCCCG | 1.76 ± 0.058 | 1.85 ± 0.21
81 | GUCCCA | 1.772 ± 0.0084 | 1.87 ± 0.075
82 | AUCCAG | 1.719 ± 0.012 | 1.85 ± 0.13
83 | AUCCAA | 1.56 ± 0.053 | 1.73 ± 0.12
84 | AUCCAU | 1.65 ± 0.048 | 1.81 ± 0.088
85 | AUCCAC | 1.718 ± 0.016 | 1.85 ± 0.088
86 | AUCGUA | 1.511 ± 0.0037 | 1.72 ± 0.16
87 | AUCGUG | 1.59 ± 0.084 | 1.74 ± 0.027
88 | AUCGUU | 1.6 ± 0.035 | 1.78 ± 0.048
89 | AUCGUC | 1.85 ± 0.056 | 1.92 ± 0.092
90 | GUCAUU | 1.66 ± 0.061 | 1.81 ± 0.12
91 | GUCAUG | 1.61 ± 0.037 | 1.75 ± 0.11
92 | GUCAUA | 1.57 ± 0.025 | 1.76 ± 0.14

Row | Variant | normalized RNA/DNA level without ligand (log10) [1] | normalized RNA/DNA level with ligand (log10) [2]
93 | AUCCCA | 1.76 ± 0.024 | 1.86 ± 0.091
94 | AUCCCU | 1.7543 ± 0.001 | 1.91 ± 0.07
95 | AUCCCC | 1.8 ± 0.048 | 1.92 ± 0.099
96 | GUCUUA | 1.677 ± 0.0086 | 1.83 ± 0.15
97 | GUCUUU | 1.7 ± 0.033 | 1.83 ± 0.092
98 | GUCUUC | 1.7 ± 0.015 | 1.87 ± 0.097
99 | UUCCGC | 1.771 ± 0.0064 | 1.89 ± 0.084
100 | UUCCGG | 1.84 ± 0.045 | 1.93 ± 0.043
101 | UUCCGA | 1.79 ± 0.045 | 1.92 ± 0.12
102 | CUCCAG | 1.73 ± 0.07 | 1.86 ± 0.055
103 | CUCCAA | 1.46 ± 0.096 | 1.72 ± 0.083
104 | CUCCAC | 1.719 ± 0.016 | 1.84 ± 0.092
105 | CUCCAU | 1.58 ± 0.035 | 1.82 ± 0.057
106 | CUCACG | 1.78 ± 0.037 | 1.86 ± 0.16
107 | CUCACA | 1.66 ± 0.033 | 1.83 ± 0.13
108 | CUCACU | 1.57 ± 0.052 | 1.77 ± 0.092
109 | CUCACC | 1.7 ± 0.079 | 1.825 ± 0.013
110 | AUCGCA | 1.65 ± 0.018 | 1.77 ± 0.12
111 | AUCGCC | 1.78 ± 0.013 | 1.88 ± 0.15
112 | AUCGCG | 1.75 ± 0.035 | 1.84 ± 0.054
113 | AUCGCU | 1.7 ± 0.023 | 1.81 ± 0.089
114 | UUCAAG | 1.689 ± 0.0038 | 1.82 ± 0.086
115 | UUGAGC | 1.73 ± 0.025 | 1.86 ± 0.14
